In article PMC9832876, “PpTCP18 is upregulated by lncRNA5 and controls branch number in peach (Prunus persica) through positive feedback regulation of strigolactone biosynthesis”:

T1: PpTCP18 (Prunus persica, UniProt A0A251PBZ8 1-468)
T1 sequence: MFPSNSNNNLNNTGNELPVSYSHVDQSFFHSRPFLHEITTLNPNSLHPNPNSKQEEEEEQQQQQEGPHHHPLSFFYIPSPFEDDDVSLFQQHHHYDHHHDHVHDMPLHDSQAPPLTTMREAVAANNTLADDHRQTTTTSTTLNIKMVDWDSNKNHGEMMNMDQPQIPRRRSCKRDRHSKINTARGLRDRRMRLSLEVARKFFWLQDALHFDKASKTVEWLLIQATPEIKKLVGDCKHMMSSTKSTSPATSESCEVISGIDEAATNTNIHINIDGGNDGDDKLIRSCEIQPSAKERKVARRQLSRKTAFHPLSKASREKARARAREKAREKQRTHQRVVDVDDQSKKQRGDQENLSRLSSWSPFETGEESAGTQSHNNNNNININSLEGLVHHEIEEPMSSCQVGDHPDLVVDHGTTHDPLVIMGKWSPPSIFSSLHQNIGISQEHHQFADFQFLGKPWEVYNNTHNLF


Key:
[1] = target: T1, PpTCP18; assay: EMSA; weakened by 100-fold unlabeled probe; Thermo Scientific EMSA kit, manufacturer's instructions; buffer, salt, pH and temperature not stated; details: protein: recombinant; tags: MBP; chain copies: 2; label: 5' biotin; blunt
[2] = target: T1, PpTCP18; assay: EMSA; Thermo Scientific EMSA kit, manufacturer's instructions; buffer, salt, pH and temperature not stated; details: protein: recombinant; tags: MBP; chain copies: 2; label: 5' biotin; blunt

Binder	binding result [1]	binding result [2]
PpMAX4 promoter probe (dsDNA) DNA 1: ATATTGTAATTTTTCACTGGCATACTGGTCCCTAATCACCAATTAACGCAACAT DNA 2: ATGTTGCGTTAATTGGTGATTAGGGACCAGTATGCCAGTGAAAAATTACAATAT	binds	
PpMAX4 mutated probe (GGTCCC to AAAAAA) (dsDNA) DNA 1: ATATTGTAATTTTTCACTGGCATACTAAAAAATAATCACCAATTAACGCAACAT DNA 2: ATGTTGCGTTAATTGGTGATTATTTTTTAGTATGCCAGTGAAAAATTACAATAT		no binding
PpLBO1 promoter probe (dsDNA) DNA 1: GTAAATACTCCAAACCATTACACTAGTGGGTCCTTTACTAATTACATTGTTTTAA DNA 2: TTAAAACAATGTAATTAGTAAAGGACCCACTAGTGTAATGGTTTGGAGTATTTAC	binds	
PpLBO1 mutated probe (GGGTCC to AAAAAA) (dsDNA) DNA 1: GTAAATACTCCAAACCATTACACTAGTAAAAAATTTACTAATTACATTGTTTTAA DNA 2: TTAAAACAATGTAATTAGTAAATTTTTTACTAGTGTAATGGTTTGGAGTATTTAC		no binding
PpMAX3 promoter probe (dsDNA) DNA 1: CGTAACCCTCCATTTAAAAAAGTGGGTCCCAAATCCCAAAGCATGAGTGGATGGAGAGGAA DNA 2: TTCCTCTCCATCCACTCATGCTTTGGGATTTGGGACCCACTTTTTTAAATGGAGGGTTACG	binds	
